According to patent US20140072613A1, “Compositions and Methods for Treating Cutaneous Scarring” (priority 2012, published 2014):

Columns and labels:
Test in all cases: biochemical
Type in all cases: biochemical
[1] = target: 266 human kinases (Homo sapiens, UniProt O75116); details: ROCK-II(h); 100 μM
Procedure, shortened: (§1)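 Read-out by scintillation counting of radiolabelled, positively charged substrate bound to negatively charged filter; activity normalised to 100% control. Phosphate transferred from radiolabelled ATP.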

[2] = target: 266 human kinases (Homo sapiens, UniProt P22607); details: FGFR3(h); 100 μM
Procedure, shortened: as §1

[3] = target: T1, 266 human kinases (Homo sapiens, UniProt Q08881); details: Itk(h); 100 μM
T1 sequence (Q08881 1-620): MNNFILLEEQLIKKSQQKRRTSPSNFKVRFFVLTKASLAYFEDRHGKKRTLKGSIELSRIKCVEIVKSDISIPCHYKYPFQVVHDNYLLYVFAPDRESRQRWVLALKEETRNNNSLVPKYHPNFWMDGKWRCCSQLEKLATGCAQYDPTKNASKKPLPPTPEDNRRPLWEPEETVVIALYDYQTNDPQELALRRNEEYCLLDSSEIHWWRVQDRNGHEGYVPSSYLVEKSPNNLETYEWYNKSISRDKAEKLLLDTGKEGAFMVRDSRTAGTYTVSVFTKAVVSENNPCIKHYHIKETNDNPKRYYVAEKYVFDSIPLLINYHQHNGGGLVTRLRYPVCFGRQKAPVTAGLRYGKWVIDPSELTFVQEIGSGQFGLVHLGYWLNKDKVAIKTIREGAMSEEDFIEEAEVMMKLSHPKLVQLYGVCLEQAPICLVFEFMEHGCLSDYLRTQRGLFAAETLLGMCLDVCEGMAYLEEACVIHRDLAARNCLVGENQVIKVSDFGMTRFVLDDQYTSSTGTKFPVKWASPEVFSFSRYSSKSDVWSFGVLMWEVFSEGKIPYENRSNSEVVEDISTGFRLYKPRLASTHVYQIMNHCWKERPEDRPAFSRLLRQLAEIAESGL
Procedure, shortened: as §1

[4] = target: T2, 266 human kinases (Homo sapiens, UniProt P43403); details: ZAP-70(h); 100 μM
T2 sequence (P43403 1-619): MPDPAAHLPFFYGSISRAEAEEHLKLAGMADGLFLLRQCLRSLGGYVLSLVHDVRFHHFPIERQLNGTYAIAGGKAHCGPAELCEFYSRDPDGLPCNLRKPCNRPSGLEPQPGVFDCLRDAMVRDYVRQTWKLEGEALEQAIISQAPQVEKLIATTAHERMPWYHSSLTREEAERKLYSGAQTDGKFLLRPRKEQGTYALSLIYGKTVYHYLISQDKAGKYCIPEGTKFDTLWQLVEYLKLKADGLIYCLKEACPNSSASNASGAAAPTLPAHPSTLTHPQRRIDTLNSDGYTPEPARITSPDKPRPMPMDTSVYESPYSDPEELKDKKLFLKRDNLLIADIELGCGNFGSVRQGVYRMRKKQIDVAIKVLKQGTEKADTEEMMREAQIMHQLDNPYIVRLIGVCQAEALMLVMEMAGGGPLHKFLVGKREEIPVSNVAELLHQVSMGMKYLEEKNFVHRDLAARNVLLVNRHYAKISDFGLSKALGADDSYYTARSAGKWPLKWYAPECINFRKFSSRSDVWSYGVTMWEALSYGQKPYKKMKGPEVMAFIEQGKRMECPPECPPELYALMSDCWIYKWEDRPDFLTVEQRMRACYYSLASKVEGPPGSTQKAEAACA
Procedure, shortened: as §1

[5] = target: T3, 266 human kinases (Homo sapiens, UniProt Q05513); details: PKCζ(h); 100 μM
T3 sequence (Q05513 1-592): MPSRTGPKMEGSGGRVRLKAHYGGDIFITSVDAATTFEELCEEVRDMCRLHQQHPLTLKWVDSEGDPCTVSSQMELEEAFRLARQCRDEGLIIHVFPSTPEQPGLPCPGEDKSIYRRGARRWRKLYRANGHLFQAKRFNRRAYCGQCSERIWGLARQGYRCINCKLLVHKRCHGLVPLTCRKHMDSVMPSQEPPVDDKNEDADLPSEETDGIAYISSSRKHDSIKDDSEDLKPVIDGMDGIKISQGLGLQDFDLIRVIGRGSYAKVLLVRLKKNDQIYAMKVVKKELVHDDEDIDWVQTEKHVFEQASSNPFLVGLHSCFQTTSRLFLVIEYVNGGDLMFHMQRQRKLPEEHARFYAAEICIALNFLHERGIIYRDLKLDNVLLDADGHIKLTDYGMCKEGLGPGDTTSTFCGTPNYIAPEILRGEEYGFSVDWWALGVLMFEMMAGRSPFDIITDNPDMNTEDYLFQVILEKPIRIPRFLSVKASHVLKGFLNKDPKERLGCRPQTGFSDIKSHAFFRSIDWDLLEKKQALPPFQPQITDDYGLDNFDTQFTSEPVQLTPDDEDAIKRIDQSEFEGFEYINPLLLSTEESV
Procedure, shortened: as §1

266 human kinases (Homo sapiens, UniProt O75116), sequence (O75116 whole entry): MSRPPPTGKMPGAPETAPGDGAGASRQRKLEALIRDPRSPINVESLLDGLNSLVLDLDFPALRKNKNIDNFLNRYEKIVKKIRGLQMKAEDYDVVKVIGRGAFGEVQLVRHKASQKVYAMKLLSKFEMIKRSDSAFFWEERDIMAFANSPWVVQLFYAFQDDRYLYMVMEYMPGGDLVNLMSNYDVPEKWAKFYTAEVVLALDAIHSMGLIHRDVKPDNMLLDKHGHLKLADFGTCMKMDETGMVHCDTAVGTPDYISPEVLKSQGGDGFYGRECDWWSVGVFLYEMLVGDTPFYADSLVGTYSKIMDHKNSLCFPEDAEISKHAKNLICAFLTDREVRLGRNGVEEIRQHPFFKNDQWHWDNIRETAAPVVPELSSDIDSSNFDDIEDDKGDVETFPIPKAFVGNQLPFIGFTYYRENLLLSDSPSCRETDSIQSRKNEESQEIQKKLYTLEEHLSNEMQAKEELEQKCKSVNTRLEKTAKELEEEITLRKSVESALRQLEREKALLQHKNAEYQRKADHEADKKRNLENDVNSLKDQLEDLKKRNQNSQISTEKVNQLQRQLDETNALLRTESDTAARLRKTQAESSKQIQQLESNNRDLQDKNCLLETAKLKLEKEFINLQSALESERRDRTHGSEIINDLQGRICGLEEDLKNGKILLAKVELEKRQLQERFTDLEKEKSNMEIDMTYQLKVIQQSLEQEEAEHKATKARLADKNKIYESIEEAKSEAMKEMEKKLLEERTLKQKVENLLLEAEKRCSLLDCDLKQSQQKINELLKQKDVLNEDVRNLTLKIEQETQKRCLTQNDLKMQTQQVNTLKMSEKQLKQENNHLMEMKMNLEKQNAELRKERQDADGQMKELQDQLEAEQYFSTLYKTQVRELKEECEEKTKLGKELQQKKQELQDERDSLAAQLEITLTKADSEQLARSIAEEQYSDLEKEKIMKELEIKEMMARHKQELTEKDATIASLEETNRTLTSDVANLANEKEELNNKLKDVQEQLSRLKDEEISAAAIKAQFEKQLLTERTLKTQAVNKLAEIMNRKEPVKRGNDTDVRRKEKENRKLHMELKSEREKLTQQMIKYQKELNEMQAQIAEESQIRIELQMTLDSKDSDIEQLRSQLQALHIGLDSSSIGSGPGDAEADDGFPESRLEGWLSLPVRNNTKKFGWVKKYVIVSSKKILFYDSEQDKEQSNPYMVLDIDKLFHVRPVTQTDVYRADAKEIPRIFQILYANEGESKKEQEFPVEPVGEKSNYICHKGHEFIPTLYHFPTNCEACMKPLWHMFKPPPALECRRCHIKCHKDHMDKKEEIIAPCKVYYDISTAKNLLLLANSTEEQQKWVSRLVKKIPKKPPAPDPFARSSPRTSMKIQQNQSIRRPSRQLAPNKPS
266 human kinases (Homo sapiens, UniProt P22607), sequence (P22607 23-806): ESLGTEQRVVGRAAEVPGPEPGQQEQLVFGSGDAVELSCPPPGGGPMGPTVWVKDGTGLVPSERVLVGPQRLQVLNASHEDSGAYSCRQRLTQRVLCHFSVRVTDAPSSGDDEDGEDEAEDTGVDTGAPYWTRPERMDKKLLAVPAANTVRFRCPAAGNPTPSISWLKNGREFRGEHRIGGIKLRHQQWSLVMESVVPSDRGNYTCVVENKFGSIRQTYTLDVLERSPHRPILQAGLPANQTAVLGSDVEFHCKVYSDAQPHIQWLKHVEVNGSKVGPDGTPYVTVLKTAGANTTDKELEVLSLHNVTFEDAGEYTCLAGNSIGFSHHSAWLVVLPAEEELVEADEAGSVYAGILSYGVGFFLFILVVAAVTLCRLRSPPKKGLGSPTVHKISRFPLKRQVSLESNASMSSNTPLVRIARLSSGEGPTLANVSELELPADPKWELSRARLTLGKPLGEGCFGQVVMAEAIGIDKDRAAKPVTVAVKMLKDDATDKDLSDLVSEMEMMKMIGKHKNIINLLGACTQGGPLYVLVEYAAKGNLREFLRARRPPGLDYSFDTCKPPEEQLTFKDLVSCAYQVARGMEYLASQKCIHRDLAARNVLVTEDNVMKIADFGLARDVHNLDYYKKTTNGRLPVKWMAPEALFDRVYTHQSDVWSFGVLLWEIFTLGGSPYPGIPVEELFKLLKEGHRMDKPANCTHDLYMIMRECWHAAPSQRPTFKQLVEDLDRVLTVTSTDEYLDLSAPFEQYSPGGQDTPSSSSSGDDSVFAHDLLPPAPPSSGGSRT

| Sequence | % activity [1] [%] | % activity [2] [%] | % activity [3] [%] | % activity [4] [%] | % activity [5] [%] |
| --- | --- | --- | --- | --- | --- |
| HRRIKAWLKKIKALARQLGVAA (mammal) [MMI-0500] | 2 | 10 | 7 | 1 | 7 |
| YARAAARQARAKALNRQLGVA (mammal) [MMI-0200] | 85 | 208 | 98 | 58 | 98 |
